Laboratory results: US7135170B2 (ZymoGenetics, Inc., priority 2002, dated 2006)

B1: IL-28A: human IL-28A polypeptide, previous designation zcyto20 (SEQ ID NOS: 2, 18, 36) (protein, listed as Homo sapiens)
chain: MKLDMTGDCTPVLVLMAAVLTVTGAVPVARLHGALPDARGCHIAQFKSLSPQELQAFKRAKDALEESLLLKDCRCHSRLFPRTWDLRQLQVRERPMALEAELALTLKVLEATADTDPALVDVLDQPLHTLHHILSQFRACIQPQPTAGPRTRGRLHHWLYRLQEAPKKESPGCLEASVTFNLFRLLTRDLNCVASGDLCV
modifications: SIGNAL (1)...(25)
B2: Zcyto24: previous designation for mouse IL-28A (SEQ ID NO: 8); mouse IL-28 (zcyto24) in b234 (protein, listed as Mus musculus)
chain: MKPETAGGHMLLLLLPLLLAAVLTRTQADPVPRATRLPVEAKDCHIAQFKSLSPKELQAFKKAKDAIEKRLLEKDLRCSSHLFPRAWDLKQLQVQERPKALQAEVALTLKVWENMTDSALATILGQPLHTLSHIHSQLQTCTQLQATAEPRSPSRRLSRWLHRLQEAQSKETPGCLEASVTSNLFRLLTRDLKCVANGDQCV
B3: IL-29: human IL-29 polypeptide, previous designation zcyto21 (SEQ ID NOS: 4, 20, 38) (protein, listed as Homo sapiens)
chain: MAAAWTVVLVTLVLGLAVAGPVPTSKPTTTGKGCHIGRFKSLSPQELASFKKARDALEESLKLKNWSCSSPVFPGNWDLRLLQVRERPVALEAELALTLKVLEAAAGPALEDVLDQPLHTLHHILSQLQACIQPQPTAGPRPRGRLHHWLHRLQEAPKKESAGCLEASVTFNLFRLLTRDLKYVADGNLCLRTSTHPEST
modifications: SIGNAL (1)...(19)

How the values were obtained:
HSV-2 = HSV-2 cytopathic effect inhibition in Vero cells; assay type: cell-based, Herpes Simplex Virus-2; details: HSV-2, Vero cells
Experimental: The Vero cells are propagated in Dulbecco's modified essential medium (DMEM) containing phenol red with 10% horse serum, 1% glutamine and 1% penicillin-streptomycin, while the CPE inhibition assays are performed in DMEM without phenol red with 2% FBS, 1% glutamine and 1% Pen-Strep. On the day preceding the assays, cells were trypsinized (1% trypsin-EDTA), washed, counted and plated out at 10^4 cells/well in a 96-well flat-bottom BioCoat® plates (Fisher Scientific, Pittsburgh, Pa.) in a volume of 100 μl/well. The next morning, the medium was removed and a pre-titered aliquot of virus was added to the cells. The amount of virus used is the maximum dilution that would yield complete cell killing (>80% ) at the time of maximal CPE development. Cell viability is determined using a CellTiter 96® reagent (Promega) according to the manufacturer's protocol, using a Vmax plate reader (Molecular Devices, Sunnyvale, Calif.). Compounds are tested at six concentrations each, diluted in assay medium in a half-log series. Acyclovir was used as a positive control. Compounds are added at the time of viral infection. The average background and drug color-corrected data for percent CPE reduction and percent cell viability at each concentration are determined relative to controls and the IC50 calculated relative to the TC50.

HHV-8 = HHV-8 replication in BCBL-1 cells (TaqMan PCR, CellTiter96); assay type: cell-based, Human Herpesvirus-8; details: six days
OAS activity = OAS activity in serum and plasma of mice (OAS radioimmunoassay); assay type: in vivo, mouse; details: i.v., 10 μg–250 μg
Experimental: Serum and plasma were isolated from mice at varying time points, and OAS activity was measured using the OAS radioimmunoassay (RIA) kit from Eiken Chemicals (Tokyo, Japan).

BVDV = BVDV cytopathic effect inhibition in MDBK bovine kidney cells; assay type: cell-based, bovine viral diarrhea virus
Experimental: The MDBK cells were propagated in Dulbecco's modified essential medium (DMEM) containing phenol red with 10% horse serum, 1% glutamine and 1% penicillin-streptomycin. CPE inhibition assays were performed in DMEM without phenol red with 2% FBS, 1% glutamine and 1% Pen-Strep. On the day preceding the assays, cells were trypsinized (1% trypsin-EDTA), washed, counted and plated out at 10^4 cells/well in a 96-well flat-bottom BioCoat® plates (Fisher Scientific, Pittsburgh, Pa.) in a volume of 100 μl/well. The next day, the medium was removed and a pre-titered aliquot of virus was added to the cells. The amount of virus was the maximum dilution that would yield complete cell killing (>80% ) at the time of maximal CPE development (day 7 for BVDV). Cell viability was determined using a CellTiter96® reagent (Promega) according to the manufacturer's protocol, using a Vmax plate reader (Molecular Devices, Sunnyvale, Calif.). Test samples were tested at six concentrations each, diluted in assay medium in a half-log series. IFNα and RIBAVIRIN® were used as positive controls. Test sample were added at the time of viral infection. The average background and sample color-corrected data for percent CPE reduction and percent cell viability at each concentration were determined relative to controls and the IC50 calculated relative to the TC50.

[1] = test system: ISG induction (OAS, Pkr, Mx1) in AML-12 cells; assay: ISG induction in the mouse liver cell line AML-12 (real-time PCR); assay type: cell-based; details: AML-12, 20 ng/ml, 48 hour time point
Experimental: AML-12 cells were plated in 6-well plates in complete DMEM media at a concentration of 2×10^6 cells/well. […] As a control, cells were either stimulated with mouse IFNα (positive control) or unstimulated (negative). […] RNA was isolated from cell pellets using RNAEasy-kit® (Qiagen, Valencia, Calif.). RNA was treated with DNase (Millipore, Billerica, Mass.) to clean RNA of any contaminating DNA. cDNA was generated using Perkin-Elmer RT mix. ISG gene induction was evaluated by real-time PCR using primers and probes specific for mouse OAS, Pkr and Mx1. To obtain quantitative data, HPRT real-time PCR was duplexed with ISG PCR. A standard curve was obtained using known amounts of RNA from IFN-stimulated mouse PBLs. All data are shown as expression relative to internal HPRT expression.
All data shown were expressed as fold relative to HPRT gene expression

adenoviral vector, AdGFP = assay: Adenoviral vector (AdGFP) liver pathology in mice; details: for liver and inflammation scores (histology): vs the PBS-treated group
[2] = test system: ISRE signaling in HepG2 cells; assay: ISRE-luciferase signal transduction reporter assay in HepG2 cells; assay type: cell-based, human; details: 100 ng/ml ligand, 4-hour; RLU over medium alone
Mouse B cells = assay: Mouse B cell 3H-thymidine incorporation; assay type: cell-based
Experimental: Mouse B cells were isolated from 2 Balb/C spleens (7 months old) by depleting CD43+ cells using MACS magnetic beads. Purified B cells were cultured in vitro with LPS, anti-IgM or anti-CD40 monoclonal antibodies. Mouse IL-28 or mouse IFNα was added to the cultures and ^3H-thymidine was added at 48 hrs. and ^3H-thymidine incorporation was measured after 72 hrs. culture.

EMCV = EMCV antiviral assay (MTT dye-uptake) in HepG2 cells; assay type: cell-based, encephalomyocarditis virus; details: cytokine 24 hours before EMCV, OD570
[3] = test system: ISGs OAS, Pkr and Mx1 in spleens; assay: ISG expression in spleens of Eu-lck human IL-29 transgenic mice; assay type: in vivo, mouse; details: spleen of IL-29 Tg mice
Experimental: This promoter is active in T cells and B cells. Transgenic mice and their non-transgenic littermates (n=2/gp) were sacrificed at about 10 weeks of age. Spleens of mice were isolated. RNA was isolated from cell pellets using RNAEasy-kit® (Qiagen). RNA was treated with DNase to clean RNA of any contaminating DNA. cDNA was generated using Perkin-Elmer RT® mix. ISG gene induction was evaluated by real-time PCR using primers and probes (5′ FAM, 3′ NFQ) specific for mouse OAS, Pkr and Mx1. To obtain quantitative data, HPRT real-time PCR was duplexed with ISG PCR. Furthermore, a standard curve was obtained using known amounts of IFN stimulated mouse PBLs. All data are shown as expression relative to internal HPRT expression.
All data shown are fold expression relative to HPRT gene expression. The average expression in two mice is shown

[4] = test system: human marrow mononuclear cells; assay: Bone marrow expansion assay (Alamar Blue); assay type: cell-based; details: in the presence of IL-2 or IL-15
[5] = test system: ISG gene expression (OAS, Pkr, Mx1) in liver, spleen and blood; assay: ISG gene expression in liver, spleen and blood of injected mice (real-time PCR); assay type: in vivo, mouse; details: mice
Experimental: Mice were sacrificed at various time points (1 hr-48 hr). Spleens and livers were isolated from mice, and RNA was isolated. RNA was also isolated from the blood cells. The cells were pelleted and RNA isolated from pellets using RNAEasy®-kit (Qiagen). RNA was treated with DNase (Amicon) to rid RNA of any contaminating DNA. cDNA was generated using Perkin-Elmer RT mix (Perkin-Elmer). ISG gene induction was measured by real-time PCR using primers and probes specific for mouse OAS, Pkr and Mx1. To obtain quantitative data, HPRT real-time PCR was duplexed with ISG PCR. A standard curve was calculated using known amounts of IFN-stimulated mouse PBLs. All data are shown as expression relative to internal HPRT expression.
Results shown are fold expression relative to HPRT gene expression. […] The data shown is the average expression from 5 different animals/group.
Mice were injected with 100 μg of proteins i.v. Data shown is fold expression over HPRT expression from livers of mice. Similar data was obtained from blood and spleens of mice.

[6] = average of two mice (Non-Tg 4.5)

Molecule | antiviral activity (HSV-2) | IC50, extracellular HHV-8 DNA (HHV-8) | OAS activity in the serum and plasma of mice (OAS activity) | IC50, inhibition of cell death induced by BVDV (BVDV) | Mx1 expression [1] | OAS expression [1] | PkR expression [1] | liver and inflammation scores (histology) (adenoviral vector, AdGFP) | Fold Inductn. of ISRE signaling [2] | 3H-thymidine incorporation by mouse B cells (Mouse B cells; stimulated with LPS or anti-IgM, IFNα 10 ng/ml, mouse IL-28 any concentration incl. 1000 ng/ml) | 3H thymidine incorporation by mouse B cells (Mouse B cells; stimulated with anti-CD40 MAb) | liver histology: sinusoidal cells, mitotic figures, changes in the hepatocytes (adenoviral vector, AdGFP; vs the PBS treatment group) | EC50 (EMCV) | Mx1 expression ([3]; average of two mice (Non-Tg 3.5)) | OAS expression [3, 6] | PkR expression [3, 6] | expansion of bone marrow cells [4] | time of peak expression of ISGs after injection [5]
IFNα | no antiviral activity |  |  |  |  |  |  |  |  |  |  |  |  |  |  |  |  | 
B1 |  | 1 µg/mL | induced OAS activity | 0.02 µg/mL | 0.06 fold relative to HPRT gene expression | 0.04 fold relative to HPRT gene expression | 0.02 fold relative to HPRT gene expression |  |  |  |  |  |  |  |  |  |  | 
B2 |  |  |  |  | 0.08 fold relative to HPRT gene expression | 0.04 fold relative to HPRT gene expression | 0.02 fold relative to HPRT gene expression | lower liver and inflammation scores | 4.7 fold | did not inhibit | increased |  |  |  |  |  |  | 
B3 |  | 6.5 µg/mL |  | 0.19 µg/mL | 0.07 fold relative to HPRT gene expression | 0.04 fold relative to HPRT gene expression | 0.02 fold relative to HPRT gene expression | lower liver and inflammation scores |  |  |  | less proliferation of sinusoidal cells, fewer mitotic figures and fewer changes in the hepatocytes | 0.0006 µg/mL | 21 fold expression relative to HPRT gene expression | 12 fold expression relative to HPRT gene expression | 8 fold expression relative to HPRT gene expression | small inhibition | 1 to 6 h
